US20240415930A1, “COMPOSITIONS AND METHODS FOR ENHANCING BRAIN PERFUSION” (Washington University, priority 2021, published 2024)
Entries after “also recorded” stand apart in the source; their conditions may differ.

Tested on: perivascular macrophages (PVMs)
Assay: M-CSF treatment of aged mice: OVA tracer diffusion/coverage (CSF flow)
Type: in vivo
Procedure: FIG. 3U is a schematic diagram summarizing an experimental design to determine the effect of M-CSF treatment on CSF flow in aged mice.
FIG. 7D is a schematic diagram summarizing an experimental design wherein old mice were treated with M-CSF (or aCSF as a control group). Six hours after treatment, mice received OVA via ICM injection, and brains were harvested one hour after OVA diffusion.
First, it was observed that tracer diffusion in aged mice (24-month-old) was impaired compared to young/adult mice (3-month-old) (FIGS. 7A, 7B, 7C, 7D, 7E, and 7F).

B1: macrophage colony stimulating factor (protein, UniProt P07141 33-552, looked up)
Macrophage colony-stimulating …: KEVSEHCSHMIGNGHLKVLQQLIDSQMETSCQIAFEFVDQEQLDDPVCYLKKAFFLVQDIIDETMRFKDNTPNANATERLQELSNNLNSCFTKDYEEQNKACVRTFHETPLQLLEKIKNFFNETKNLLEKDWNIFTKNCNNSFAKCSSRDVVTKPDCNCLYPKATPSSDPASASPHQPPAPSMAPLAGLAWDDSQRTEGSSLLPSELPLRIEDPGSAKQRPPRSTCQTLESTEQPNHGDRLTEDSQPHPSAGGPVPGVEDILESSLGTNWVLEEASGEASEGFLTQEAKFSPSTPVGGSIQAETDRPRALSASPFPKSTEDQKPVDITDRPLTEVNPMRPIGQTQNNTPEKTDGTSTLREDHQEPGSPHIATPNPQRVSNSATPVAQLLLPKSHSWGIVLPLGELEGKRSTRDRRSPAELEGGSASEGAARPVARFNSIPLTDTGHVEQHEGSSDPQIPESVFHLLVPGIILVLLTVGGLLFYKWKWRSHRDPQTLDSSVGRPEDSSLTQDEDRQVELPV
- OVA tracer diffusion/coverage through the brain (aged (24-month-old) mice, OVA ICM six hours after ICM M-CSF, brains harvested one hour later, vs aCSF): improved tracer diffusion through the brain tissue; also recorded: increase in OVA diffusion/coverage compared to aCSF-treated mice; also recorded: improved perfusion of the brains in older mice
- state of perivascular macrophages (older mice, ICM injection): rejuvenated the perivascular macrophages
